The text below walks through data of patent US20200231974A1 (published 2020).

This assay concerns the target T1, HCMV pp65 peptide on HLA-B*07:02 (human).
T1 peptide: TPRVTGGGAM
Put plainly: multimer staining.

B1: HBD4.1.S9-2.A6 (SEQ0709 and SEQ0710) (TCR, V domains shown)
Valpha: AQKITQTQPGMFVQEKEAVTLDCTYDTSDQSYGLFWYKQPSSGEMIFLIYQGSYDEQNATEGRYSLNFQKARKSANLVISASQLGDSAMYFCAMREGMDSSYKLIFGSGTRLLVRP
Vbeta: DTGVSQNPRHKITKRGQNVTFRCDPISEHNRLYWYRQTLGQGPEFLTYFQNEAQLEKSRLLSDRFSAERPKGSFSTLEIQRTEQGDSAMYLCASSLHDRGARTEAFFGQGTRLTVV
B1: the binding result is reported as “recognises”.

B2: HBD4.1.S9-5.E3 (SEQ0717 and SEQ0718) (TCR, V domains shown)
Valpha: SQQGEEDPQALSIQEGENATMNCSYKTSINNLQWYRQNSGRGLVHLILIRSNEREKHSGRLRVTLDTSKKSSSLLITASRAADTASYFCATELRMDSSYKLIFGSGTRLLVRP
Vbeta: DTGVSQNPRHKITKRGQNVTFRCDPISEHNRLYWYRQTLGQGPEFLTYFQNEAQLEKSRLLSDRFSAERPKGSFSTLEIQRTEQGDSAMYLCASSLREGRLPETQYFGPGTRLLVL
Take B2: the binding result was “recognises”.

B3: HBD4.1.S9-1.D5 (SEQ0707 and SEQ0708) (TCR, V domains shown)
Valpha: DAKTTQPPSMDCAEGRAANLPCNHSTISGNEYVYWYRQIHSQGPQYIIHGLKNNETNEMASLIITEDRKSSTLILPHATLRDTAVYYCIVRDRYNTGNQFYFGTGTSLTVIP
Vbeta: EAQVTQNPRYLITVTGKKLTVTCSQNMNHEYMSWYRQDPGLGLRQIYYSMNVEVTDKGDVPEGYKVSRKEKRNFPLILESPSPNQTSLYFCASSLGPSSYEQYFGPGTRLTVT
B3: the binding result is listed as “recognises”.

B4: HBD4.1.S9-7.E5 (SEQ0713 and SEQ0714) (TCR, V domains shown)
Valpha: AQKITQTQPGMFVQEKEAVTLDCTYDTSDQSYGLFWYKQPSSGEMIFLIYQGSYDEQNATEGRYSLNFQKARKSANLVISASQLGDSAMYFCAMRPYTGGFKTIFGAGTRLFVKA
Vbeta: EAQVTQNPRYLITVTGKKLTVTCSQNMNHEYMSWYRQDPGLGLRQIYYSMNVEVTDKGDVPEGYKVSRKEKRNFPLILESPSPNQTSLYFCASSTSPSTARYGYTFGSGTRLTVV
Consider B4, for which the binding result is reported as “recognises”.

B5: HBD4.1.S9-7.C5 (SEQ0715 and SEQ0716) (TCR, V domains shown)
Valpha: AQSVAQPEDQVNVAEGNPLTVKCTYSVSGNPYLFWYVQYPNRGLQFLLKYITGDNLVKGSYGFEAEFNKSQTSFHLKKPSALVSDSALYFCAVRSRMDSSYKLIFGSGTRLLVRP
Vbeta: DTGVSQNPRHKITKRGQNVTFRCDPISEHNRLYWYRQTLGQGPEFLTYFQNEAQLEKSRLLSDRFSAERPKGSFSTLEIQRTEQGDSAMYLCASSPPDAAYNEQFFGPGTRLTVL
As for B5, the binding result is recorded as “recognises”.
